Experimental data taken from patent publication US20250222125A1, “Anti-FGFR2b Antibodies, Conjugates and Methods of Use” (BeiGene, Ltd., priority 2024, published 2025).

Legend:
[1] = target: human FGFR2b protein (recombinant, coated on ELISA plates) (human) (UniProt P21802); test: ELISA, plate-coated human FGFR2b
[2] = target: human FGFR2c on cells (human) (UniProt P21802); test: flow cytometry, human FGFR2c OE cells
Chain of human FGFR2c on cells (human) (P21802 22-821): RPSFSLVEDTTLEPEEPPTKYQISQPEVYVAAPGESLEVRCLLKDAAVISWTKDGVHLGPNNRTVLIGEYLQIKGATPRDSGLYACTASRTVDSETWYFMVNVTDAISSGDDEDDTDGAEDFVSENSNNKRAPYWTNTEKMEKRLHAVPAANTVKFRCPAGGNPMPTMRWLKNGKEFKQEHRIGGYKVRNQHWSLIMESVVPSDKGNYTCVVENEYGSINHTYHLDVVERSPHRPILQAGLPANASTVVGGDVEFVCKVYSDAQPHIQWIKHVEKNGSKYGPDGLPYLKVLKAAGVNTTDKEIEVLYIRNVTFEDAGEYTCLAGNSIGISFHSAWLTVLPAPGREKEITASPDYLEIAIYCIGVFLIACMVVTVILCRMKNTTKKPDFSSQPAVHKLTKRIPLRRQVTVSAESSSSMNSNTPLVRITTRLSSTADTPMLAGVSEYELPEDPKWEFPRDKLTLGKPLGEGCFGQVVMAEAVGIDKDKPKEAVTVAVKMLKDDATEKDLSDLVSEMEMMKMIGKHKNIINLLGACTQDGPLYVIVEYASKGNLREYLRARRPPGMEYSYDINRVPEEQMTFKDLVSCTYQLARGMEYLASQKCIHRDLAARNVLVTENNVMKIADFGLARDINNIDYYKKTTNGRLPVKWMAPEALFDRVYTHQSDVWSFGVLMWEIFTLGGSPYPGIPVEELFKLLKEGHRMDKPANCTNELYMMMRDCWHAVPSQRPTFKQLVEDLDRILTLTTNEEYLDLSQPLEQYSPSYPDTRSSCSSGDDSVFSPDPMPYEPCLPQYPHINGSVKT

Isotype IgG control CB-6 (antibody) showed an Emax (OD450) [1] of 0.08 OD450 and an Emax (MFI) [2] of 27 MFI.
